The text below walks through data of paper PMC6358605.

This assay addresses BiP NBD (28–413) (Chinese hamster) (UniProt G3I8R9).

Chain of BiP NBD (28–413) (Chinese hamster) (G3I8R9 28-413): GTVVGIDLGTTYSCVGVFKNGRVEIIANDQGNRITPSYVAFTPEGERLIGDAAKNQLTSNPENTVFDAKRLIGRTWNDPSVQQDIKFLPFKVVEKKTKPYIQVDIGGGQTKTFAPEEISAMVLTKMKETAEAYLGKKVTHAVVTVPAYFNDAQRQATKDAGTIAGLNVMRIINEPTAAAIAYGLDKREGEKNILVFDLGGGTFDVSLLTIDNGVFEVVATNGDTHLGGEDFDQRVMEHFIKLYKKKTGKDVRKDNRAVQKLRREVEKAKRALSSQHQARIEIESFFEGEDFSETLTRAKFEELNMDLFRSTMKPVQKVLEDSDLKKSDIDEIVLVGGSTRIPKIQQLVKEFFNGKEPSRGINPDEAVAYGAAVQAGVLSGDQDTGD

In the case of “Full-length mouse MANF (wild-type) (from UniProt Q9CXI5 22-179) (natural protein)”, the inhibition of MABA-ADP release, concentration-dependent (Supplementary Fig. 4a, b) was determined as 26.5 µM.
